Laboratory results taken from publication PMC4107134.

Key:
[1] = target: integrin αIIbβ3, wild type (UniProt P05106); assay: pull-down
[2] = target: integrin αIIbΔ996β3 (αIIb tail truncated after GFFKR) (UniProt P05106); assay: pull-down

## talin head domain (THD, talin residues 1-433), purified (from UniProt P26039 1-433) (domain or fragment)
[1]
  Kd: 0.213 µM
[2]
  Kd: 0.206 µM
